In US20050203007A1 (REGENTS OF THE UNIVERSITY OF MICHIGAN, published 2005):

What was measured:
secreted, soluble furin [1] = molecular target: T1, secreted, soluble furin (human, UniProt P09958 108-715, limits assumed); assay: cell-based or functional assay
human PC7 [2] = molecular target: T2, human PC7 (human, UniProt Q16549 142-667, limits assumed); assay: cell-based or functional assay
T2 sequence (looked up): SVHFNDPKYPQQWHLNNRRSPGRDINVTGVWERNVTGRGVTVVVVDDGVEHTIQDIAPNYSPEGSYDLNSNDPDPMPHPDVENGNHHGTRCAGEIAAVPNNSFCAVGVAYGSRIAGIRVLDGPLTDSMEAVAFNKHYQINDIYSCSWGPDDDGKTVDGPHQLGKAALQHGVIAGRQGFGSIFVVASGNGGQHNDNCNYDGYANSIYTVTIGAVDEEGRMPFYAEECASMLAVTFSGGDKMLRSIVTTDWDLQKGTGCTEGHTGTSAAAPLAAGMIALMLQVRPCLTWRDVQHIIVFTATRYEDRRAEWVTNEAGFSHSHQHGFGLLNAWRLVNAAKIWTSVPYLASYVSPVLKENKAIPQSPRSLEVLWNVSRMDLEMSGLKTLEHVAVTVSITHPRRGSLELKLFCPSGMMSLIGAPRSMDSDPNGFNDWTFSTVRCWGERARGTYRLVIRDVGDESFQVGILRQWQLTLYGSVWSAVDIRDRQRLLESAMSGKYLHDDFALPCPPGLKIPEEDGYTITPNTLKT

secreted, soluble Kex2 [3] = molecular target: T3, secreted, soluble Kex2 (Saccharomyces cerevisiae, UniProt P13134 114-613, limits assumed); assay: cell-based or functional assay
T3 sequence (looked up): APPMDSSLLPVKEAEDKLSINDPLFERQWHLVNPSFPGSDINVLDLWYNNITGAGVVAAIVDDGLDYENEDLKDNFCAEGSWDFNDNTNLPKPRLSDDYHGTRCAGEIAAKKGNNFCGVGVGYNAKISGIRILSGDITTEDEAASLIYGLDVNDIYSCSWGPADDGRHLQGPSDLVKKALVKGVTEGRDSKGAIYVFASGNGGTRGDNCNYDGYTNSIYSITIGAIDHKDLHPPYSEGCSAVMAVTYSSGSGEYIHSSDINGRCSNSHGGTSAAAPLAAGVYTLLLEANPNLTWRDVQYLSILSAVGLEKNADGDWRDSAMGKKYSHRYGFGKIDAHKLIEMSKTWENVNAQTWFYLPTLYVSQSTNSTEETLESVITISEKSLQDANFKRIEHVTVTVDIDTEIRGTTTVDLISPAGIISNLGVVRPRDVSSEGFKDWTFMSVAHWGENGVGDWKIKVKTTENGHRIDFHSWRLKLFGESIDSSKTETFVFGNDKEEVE

secreted, soluble furin [4] = molecular target: T1, secreted, soluble furin; assay: equilibrium enzyme inhibition
secreted, soluble Kex2 [5] = molecular target: T3, secreted, soluble Kex2; assay: equilibrium enzyme inhibition
secreted, soluble Kex2 [6] = molecular target: T3, secreted, soluble Kex2; assay: calculated from kon (progress curves) and Ka
Method: In some aspects of the present invention, biological application of the eglin c variants of the present invention as inhibitors of processing in vivo depends upon the rate of binding to target enzymes, where it is critical. Therefore, the rate of action of eglin variants with Kex2 and furin was examined by incubating 5×10⁻¹⁰ M enzyme with inhibitor at molar ratios of inhibitor to enzyme ranging from 10 to 80. […] The relationship between kobs and inhibitor concentration was linear. The values of kₒₙ were determined from the slope of such curves, and dissociation rate constants (koff) were calculated (koff=kₒₙ/Kₐ). For R4R1-eglin, koff was calculated to be 2×10⁻⁴s⁻¹ for Kex2, and 3×10⁻⁴s⁻¹ for furin. […] Similarly, the t_{1/2} of the complex of M4R1-eglin with Kex2 was estimated to be 3 h. For complex of R4K1-eglin with furin, koff was calculated to be 2×10⁻⁴s⁻¹ implying that the koff and t_{1/2} for this complex are similar to those for the complex of R4R1-eglin with furin.

secreted, soluble furin [7] = molecular target: T1, secreted, soluble furin; assay: enzyme inhibition, purified variant
human PC7 [8] = molecular target: T2, human PC7; assay: enzyme inhibition, purified variant
secreted, soluble Kex2 [9] = molecular target: T3, secreted, soluble Kex2; assay: enzyme inhibition, purified variant
trypsin = assay: enzyme inhibition; temporary inhibitor of trypsin
Sequence of trypsin (P00760 24-246): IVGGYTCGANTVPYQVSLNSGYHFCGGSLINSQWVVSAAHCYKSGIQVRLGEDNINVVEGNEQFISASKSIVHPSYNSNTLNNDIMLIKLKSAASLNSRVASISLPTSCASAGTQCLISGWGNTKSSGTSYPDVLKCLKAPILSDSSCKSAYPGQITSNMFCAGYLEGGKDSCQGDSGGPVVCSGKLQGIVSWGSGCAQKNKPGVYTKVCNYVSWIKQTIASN

subtilisin Carlsberg = molecular target: T4, subtilisin Carlsberg (UniProt P00780 106-379); assay: enzyme inhibition
T4 sequence (looked up): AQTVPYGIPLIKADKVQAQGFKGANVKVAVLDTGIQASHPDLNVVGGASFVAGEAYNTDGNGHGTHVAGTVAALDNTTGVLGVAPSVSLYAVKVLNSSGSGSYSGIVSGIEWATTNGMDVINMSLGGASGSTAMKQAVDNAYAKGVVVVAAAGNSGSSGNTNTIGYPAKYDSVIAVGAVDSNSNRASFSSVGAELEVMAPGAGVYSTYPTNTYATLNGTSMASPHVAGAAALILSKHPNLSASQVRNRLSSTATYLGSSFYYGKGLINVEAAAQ

secreted, soluble furin [10] = molecular target: T1, secreted, soluble furin; assay: enzyme inhibition, purified variant; Kassoc
human PC7 [11] = molecular target: T2, human PC7; assay: enzyme inhibition, purified variant; Kassoc
secreted, soluble Kex2 [12] = molecular target: T3, secreted, soluble Kex2; assay: enzyme inhibition, purified variant; Kassoc

T1 sequence (P09958 108-715 limits assumed): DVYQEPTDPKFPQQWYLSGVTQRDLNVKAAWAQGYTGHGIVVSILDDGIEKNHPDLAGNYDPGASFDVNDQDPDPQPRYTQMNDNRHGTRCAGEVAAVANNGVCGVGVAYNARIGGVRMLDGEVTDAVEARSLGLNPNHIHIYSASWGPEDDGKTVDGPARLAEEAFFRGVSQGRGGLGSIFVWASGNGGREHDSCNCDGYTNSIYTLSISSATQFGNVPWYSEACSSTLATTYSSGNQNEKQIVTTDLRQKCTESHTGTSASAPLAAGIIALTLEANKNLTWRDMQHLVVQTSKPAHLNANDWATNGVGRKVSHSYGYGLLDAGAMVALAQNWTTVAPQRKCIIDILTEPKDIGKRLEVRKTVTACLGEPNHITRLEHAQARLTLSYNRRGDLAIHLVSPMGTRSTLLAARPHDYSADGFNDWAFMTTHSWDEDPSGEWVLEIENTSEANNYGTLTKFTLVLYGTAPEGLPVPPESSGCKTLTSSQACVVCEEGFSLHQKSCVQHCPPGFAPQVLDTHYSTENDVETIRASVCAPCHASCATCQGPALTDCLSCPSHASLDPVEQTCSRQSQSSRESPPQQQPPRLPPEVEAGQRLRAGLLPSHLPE

B1: R4R1-eglin (designed binder)
chain: SMGSELKSFPEVVGKTVDQAREYFTLHYPQYDVYFLPEGSRVTRDLRYNRVRVFYNPGTNVVNHVPHVG
notes: N-terminal Met removed; also called Tyr49-R4R1-; D33Y49
% inhibition of enzyme in rapid protease inhibition assay (secreted, soluble furin [1]): 60% | % inhibition of enzyme in rapid protease inhibition assay (human PC7 [2]): 70% | % inhibition of enzyme in rapid protease inhibition assay (secreted, soluble Kex2 [3]): 60% | fold higher affinity than L1-eglin (secreted, soluble furin [4]): 46000 fold | fold increase in affinity relative to M4R1-eglin (secreted, soluble furin [4]): 1430 fold | fold decrease in affinity relative to M4R1-eglin (secreted, soluble Kex2 [5]): 2.5 fold | fold stronger binding by Kex2 than by furin (secreted, soluble Kex2 [5]): ~3 fold | koff (secreted, soluble Kex2 [6]): 0.0002 s⁻¹ | Ki (secreted, soluble furin [7]): 2.5 nM | Ki (human PC7 [8]): 1.3 nM | Ki (secreted, soluble Kex2 [9]): 0.91 nM | Ka (trypsin): 8.4e+09 M⁻¹ | Ka (subtilisin Carlsberg): 6.5e+08 M⁻¹ | Ka (secreted, soluble furin [10]): 4e+08 M⁻¹ | Ka (human PC7 [11]): 7.7e+08 M⁻¹ | Ka (secreted, soluble Kex2 [12]): 1.1e+09 M⁻¹
